Test results reported in patent publication US20240043483A1, “TAU BIOSENSOR CELL LINES” (THE BOARD OF REGENTS OF THE UNIVERSITY OF TEXAS SYSTEM, priority 2020, published 2024).

Legend:
[1] = target: tau RD(P301S)-mCerulean3 fusion (tau segment 246 to 378 with the P301S mutation, linker …, mCerulean3) (UniProt P10636); test: cell-based or functional assay
[2] = target: tau RD(P301S)-mClover3 fusion (tau segment 246 to 378 with the P301S mutation, linker …, mClover3) (UniProt P10636); test: cell-based or functional assay
Sequence of tau RD(P301S)-mClover3 fusion (tau segment 246 to 378 with the P301S mutation, linker …, mClover3) (P10636 other isoform, or with tags, fused parts or gaps P301S P301S P301S P301S): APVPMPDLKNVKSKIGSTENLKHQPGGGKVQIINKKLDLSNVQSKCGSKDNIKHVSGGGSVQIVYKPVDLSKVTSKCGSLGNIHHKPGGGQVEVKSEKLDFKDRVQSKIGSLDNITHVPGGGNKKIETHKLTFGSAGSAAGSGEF

Sequence of tau RD(P301S)-mCerulean3 fusion (tau segment 246 to 378 with the P301S mutation, linker …, mCerulean3) (P10636 other isoform, or with tags, fused parts or gaps P301S P301S P301S P301S): as above

recombinant tau fibrils made of wild-type full-length (2N4R) tau (from UniProt P10636 2-441)
seeding activity (FRET positivity) after TauA immunopurification of fibrils spiked into 1 ml control CSF [1]: 100 attomolar | seeding activity (FRET positivity) after TauA immunopurification of fibrils spiked into 1 ml control CSF [2]: 100 attomolar
